Publication PMC2628428 (Molecular Microbiology, 2008)

Molecular target: the molecule itself
Test: cross-linking

B1: CetB (natural protein, UniProt Q0P967 1-165, looked up)
chain: MSREIFLQEDSLITSKTDLKGKIVYANDDFLKYAGYTMGEVLNKPHNIVRHEEMPKTVFKYLWDYMKEGKEIFAYVKNKTKDNNYYWVFANVTPSIDVNNNIIGYYSVRRMPNKSAISTIESLYSDLLRAEQQQGLNKGVEMLKNFCKDADKTYNELIFSLQEAK
  stoichiometry N: 2
